Reference: patent US5959145A, “Fatty acid analog enzyme substrates” (priority 1993, dated 1999)

T1: yeast NMT (Saccharomyces cerevisiae, UniProt P14743)
T1 construct: 11,000-fold purified preparation of yeast NMT; endogenous in cells; host or cells: yeast (enzyme purified from yeast, 11,000-fold)
T1 sequence (P14743 1-455): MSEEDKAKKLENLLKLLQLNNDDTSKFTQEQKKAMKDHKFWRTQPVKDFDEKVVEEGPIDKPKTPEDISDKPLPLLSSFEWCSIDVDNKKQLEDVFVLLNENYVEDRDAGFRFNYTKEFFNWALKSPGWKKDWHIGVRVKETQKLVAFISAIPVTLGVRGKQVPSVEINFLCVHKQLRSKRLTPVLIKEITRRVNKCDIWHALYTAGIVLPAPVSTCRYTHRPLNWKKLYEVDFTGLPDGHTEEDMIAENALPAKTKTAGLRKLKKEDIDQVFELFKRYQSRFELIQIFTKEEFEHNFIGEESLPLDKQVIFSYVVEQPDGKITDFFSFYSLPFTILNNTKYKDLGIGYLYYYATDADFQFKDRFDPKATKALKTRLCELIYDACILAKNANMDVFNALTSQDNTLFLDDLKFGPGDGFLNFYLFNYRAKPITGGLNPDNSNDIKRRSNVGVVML


Columns and labels:
[1] = 2-octanol/water partition; format: physicochemical
Description: For these Examples, each analog synthesized is characterized by ^1 H and ^13 C NMR as well as mass spectroscopy. The analogs are then characterized kinetically as NMT substrates. Briefly, fatty acid analogs are converted to their CoA esters with Pseudomonas CoA ligase and incubated with the iodinated peptide GNAAS[^125 I]YRR and a source of NMT. […] The radiolabelled peptide is then used at concentrations which will lead to 50% enzyme saturation (i.e., at its Km) for the determination of fatty acid analog kinetic characteristics. Representative analogs with sulfur or oxygen in the backbone of the fatty acid chain serve as good substrates for NMT in vitro and will compete for incorporation of ^3 H labelled myri-state into yeast proteins in vivo. In addition, these analogs differ markedly in hydrophobicity from myri-state as measured both by C18 reverse phase HPLC elution profiles and by 2-octanol/water partition coefficients. The analog CH3 O(CH2)11 COOH, for example, partitions into water 20 fold better than myristate. It is believed that these analogs will be incorporated into mammalian acylproteins in vivo and that their incorporation into these proteins will drastically alter protein processing or targeting. […]

[2] = target: T1, yeast NMT; test: kinetic characterisation of fatty acid analogs as yeast NMT substrates; format: biochemical
Text: (§1) Similar results were obtained using an 11,000-fold purified preparation of yeast NMT [Towler et al., Proc. Natl. Acad. Sci. USA 84, 2708-2712 (1987)].
(§2) Other illustrative examples of the oxy- and thio-substituted fatty acid analog substrate compounds of the invention were synthesized in Examples 6 to 14 and tested in Example 15 as substrates for the yeast NMT.
(§3) For these Examples, each analog synthesized is characterized by ^1 H and ^13 C NMR as well as mass spectroscopy. The analogs are then characterized kinetically as NMT substrates. Briefly, fatty acid analogs are converted to their CoA esters with Pseudomonas CoA ligase and incubated with the iodinated peptide GNAAS[^125 I]YRR and a source of NMT. […] The radiolabelled peptide is then used at concentrations which will lead to 50% enzyme saturation (i.e., at its Km) for the determination of fatty acid analog kinetic characteristics. Representative analogs with sulfur or oxygen in the backbone of the fatty acid chain serve as good substrates for NMT in vitro and will compete for incorporation of ^3 H labelled myri-state into yeast proteins in vivo. In addition, these analogs differ markedly in hydrophobicity from myri-state as measured both by C18 reverse phase HPLC elution profiles and by 2-octanol/water partition coefficients. The analog CH3 O(CH2)11 COOH, for example, partitions into water 20 fold better than myristate. It is believed that these analogs will be incorporated into mammalian acylproteins in vivo and that their incorporation into these proteins will drastically alter protein processing or targeting. It is further believed that the incorporation of fatty acid analogs of both myristate and palmitate into ester linked and phosphatidyl inositol glycan linked acylproteins will also dramatically alter their properties. Since many viral proteins and oncogenes are acylated, these compounds represent a new class of potential antiviral and antineoplastic agents.

[3] = test system: Saccharomyces cerevisiae strain BJ405; test: growth, toxicity and total protein synthesis in yeast cells; format: cell-based
Description: (§4) Saccharomyces cerevisiae strain BJ405 [MATα, trpl, prbl, prcl, pep4-3; Hemmings et al., Proc. Natl. Acad. Sci. USA 78, 435-439 (1981)] (previously referred to as JR153) was grown to mid-log phase (OD660 nm =1.0-1.2) in YPD medium (1% yeast extract/2% Bactopeptone/2% Dextrose) at 30° C. in a rotary shaker water bath. Cells were pretreated with Cerulenin at 2 μg/ml for 15 minutes and then incubated for 20-45 minutes with unlabeled myristate, palmitate or fatty acid analog at 100 μM in the presence of either 5 μM [9,10-^3 H(N)]-myristate (22.4 Ci/mmol) or L-[^35 S]methionine (1106 Ci/mmol) at 30 μCi/ml of culture.
(§5) Cells were cooled on ice 5 minutes, pelleted at 10,000×g, then broken and extracted by the method of Towler et al., Proc. Natl. Acad. Sci. USA 83, 2812-2816 (1986). Total protein synthesis was assayed by trichloroacetic acid (TCA) precipitation. Proteins were separated by SDS-12% polyacrylamide gel electrophoresis, and [^3 H]fatty acid incorporation into cellular acyl-proteins was assayed by autoradiography followed by laser densitometry.

[4] = as above; format: cell-based; settings: s. cerevisiae bj405, vs control cells not exposed to exogenous fatty acid, read-out: reduction in total protein synthesis ([35S]methionine into TCA precipitable protein)
Description: as §4, §5

[5] = test system: yeast myristoylprotein of Mr 20 kDa; test: competition for [3H]myristate incorporation into yeast acylprotein in vivo; format: cell-based; settings: Saccharomyces cerevisiae, 0.75 h; 100 μM unlabeled fatty acid or analog, 5 μM [3H]myristate, vs control cells; read-out: reduction in incorporation of [3H]myristate into yeast myristoylprotein of Mr 20 kDa
Description: as §4, §5

[6] = C18 reverse phase HPLC elution of fatty acyl peptides (hydrophobicity); format: physicochemical; settings: C18 reverse phase HPLC, acyl derivative of GNAAS[125I]YRR; Table 2
Description: The fatty acid analog acyl-peptide eluted 7 minutes earlier than the corresponding myristoyl peptide. The free peptide elutes in the void volume (3-5minutes).
This difference was evident when the HPLC elution characteristics of fatty acyl peptides were examined. The elution time of a particular acyl-peptide depends strongly on the peptide sequence as well as on the acyl chain attached to that peptide. For example, the elution times of fatty acyl derivatives of GNAAAARR are (in minutes) decanoic acid, 9; dodecanoic acid, 18; myristic acid, 24; and palmitic acid, 30. Elution times for fatty acyl derivatives of GNAAS[^125 I]YRR are 23 and 28 minutes for C12 and C14 fatty acids, respectively (FIG. 2). […] Such a change could alter the biological activity of myristoyl proteins.
as §3

[7] = substrate: CCCOCCCCCCCCCC(=O)O; test: kinetic characterisation of fatty acid analogs as yeast NMT substrates; format: biochemical; settings: other: peptide GNAAS[125I]YRR varied, fatty acid analog at 15 μM
Text: as §1, §2, §3

[8] = substrate: CCSCCCCCCCCCCC(=O)O; test: as above; format: biochemical; settings: other: peptide GNAAS[125I]YRR varied, fatty acid analog at 15 μM
Text: as §1, §2, §3

[9] = substrate: CCOCCCCCCCCCCC(=O)O; test: as above; format: biochemical; settings: other: peptide GNAAS[125I]YRR varied, fatty acid analog at 15 μM
Text: as §1, §2, §3

[10] = substrate: CCCCCCCCSCCCCC(=O)O; test: as above; format: biochemical; settings: other: peptide GNAAS[125I]YRR varied, fatty acid analog at 15 μM
Text: as §1, §2, §3

[11] = substrate: CCCSCCCCCCCCCC(=O)O; test: as above; format: biochemical; settings: other: peptide GNAAS[125I]YRR varied, fatty acid analog at 15 μM
Text: as §1, §2, §3

[12] = substrate: CCCCCCCCCCCCCC(=O)O; test: as above; format: biochemical; settings: other: peptide GNAAS[125I]YRR varied, fatty acid analog at 15 μM
Text: as §1, §2, §3

[13] = substrate: C#CCOCCCCCCCCCC(=O)O; test: as above; format: biochemical; settings: other: peptide GNAAS[125I]YRR varied, fatty acid analog at 15 μM
Text: as §1, §2, §3

[14] = substrate: COCCCCCCCCCCC(=O)O; test: as above; format: biochemical; settings: other: peptide GNAAS[125I]YRR varied, fatty acid analog at 15 μM
Text: as §1, §2, §3

[15] = substrate: CCCCCCCCOCCCCC(=O)O; test: as above; format: biochemical; settings: other: peptide GNAAS[125I]YRR varied, fatty acid analog at 15 μM
Text: as §1, §2, §3

[16] = substrate: CCCCOCCCCCCCCCCC(=O)O; test: as above; format: biochemical; settings: other: peptide GNAAS[125I]YRR varied, fatty acid analog at 15 μM
Text: as §1, §2, §3

| Molecule | partition into water relative to myristate [1] | Peptide Vm ([2]; peptide GNAAS[125I]YRR varied, fatty acid analog at 15 μM, myristate control = 100%) | Acyl CoA Vm ([2]; radiolabelled peptide at its Km, analog varied, myristate control = 100%) | Km ([2]; radiolabelled peptide at its Km, analog varied, read-out: Acyl CoA Km) | difference in growth rates versus cells treated with 100 μM myristate [3] | inhibition at 100 µM [4] | inhibition at 100 µM [5] | Elution Time [6] | Km [7] | Km [8] | Km [9] | Km [10] | Km [11] | Km [12] | Km [13] | Km [14] | Km [15] | Km [16] |
| --- | --- | --- | --- | --- | --- | --- | --- | --- | --- | --- | --- | --- | --- | --- | --- | --- | --- | --- |
| COCCCCCCCCCCCC(=O)O [E, 12-(Methoxy)dodecanoic acid] | 20 fold | 177% | ~ 110% | ~2 µM | No difference | 10 to 15% | 35 to 60% | 12 to 13 min | – | – | – | – | – | – | – | – | – | – |
| yeast NMT (Saccharomyces cerevisiae S288C) (protein) MSEEDKAKKLENLLKLLQLNNDDTSKFTQEQKKAMKDHKFWRTQPVKDFDEKVVEEGPIDKPKTPEDISDKPLPLLSSFEWCSIDVDNKKQLEDVFVLLNENYVEDRDAGFRFNYTKEFFNWALKSPGWKKDWHIGVRVKETQKLVAFISAIPVTLGVRGKQVPSVEINFLCVHKQLRSKRLTPVLIKEITRRVNKCDIWHALYTAGIVLPAPVSTCRYTHRPLNWKKLYEVDFTGLPDGHTEEDMIAENALPAKTKTAGLRKLKKEDIDQVFELFKRYQSRFELIQIFTKEEFEHNFIGEESLPLDKQVIFSYVVEQPDGKITDFFSFYSLPFTILNNTKYKDLGIGYLYYYATDADFQFKDRFDPKATKALKTRLCELIYDACILAKNANMDVFNALTSQDNTLFLDDLKFGPGDGFLNFYLFNYRAKPITGGLNPDNSNDIKRRSNVGVVML | – | – | – | – | – | – | – | – | 34 µM | 19 µM | 14.8 µM | 11.5 µM | 47 µM | 10 µM | 28 µM | 47.3 µM | 31 µM | 42 µM |
